Experimental data as given in the supplement of paper PMC10065799, “High-throughput profiling of sequence recognition by tyrosine kinases and SH2 domains using bacterial peptide display” (eLife, 2023).
Blank lines part the entries; values can stand above or below the sequence they belong to.

Tests used:
AncSZ = assay: phosphorylation enrichment, bacterial display (enrichment ratio); higher = better substrate or ligand; peptides without Tyr show the background
c-Abl (mouse) = assay: as above
FGFR1 = FGFR1 (UniProt P11362); assay: as above
Jak2 = Jak2 (UniProt O60674); assay: as above
Fyn = Fyn (UniProt P06241); assay: as above
Fes = Fes (UniProt P07332); assay: as above
FGFR3 = FGFR3 (UniProt P22607); assay: as above
Fer (mouse) = assay: as above
c-Src = assay: as above
MERTK = MERTK (UniProt Q12866); assay: as above
EPHB2 = EPHB2 (UniProt P29323); assay: as above
Hck = Hck (UniProt P08631); assay: as above
EPHB1 = EPHB1 (UniProt P54762); assay: as above
c-Src SH2 = assay: SH2 binding enrichment of the phosphorylated peptide, bacterial display (enrichment ratio); higher = better substrate or ligand; peptides without Tyr show the background
Grb2 SH2 = Grb2 SH2 (UniProt P62993); assay: as above
SHP2-C SH2 = assay: as above
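Throughout, for SH2 binding enrichment of the phosphorylated peptide, bacterial display: peptide library displayed on the E. coli surface as eCPX fusions, selected cells deep-sequenced, score is each peptide's frequency after selection divided by its frequency in the input.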
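Throughout, for phosphorylation enrichment, bacterial display: 11-residue human phosphosite peptides and single-mutation variants displayed on the E. coli surface, counted by deep sequencing, each peptide's frequency after selection divided by its frequency in the unselected input library; frequency after pTyr selection over input frequency; kinase dosed for 20-30% of maximal phosphorylation in three min.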

Sequence of Jak2 (O60674 whole entry, looked up): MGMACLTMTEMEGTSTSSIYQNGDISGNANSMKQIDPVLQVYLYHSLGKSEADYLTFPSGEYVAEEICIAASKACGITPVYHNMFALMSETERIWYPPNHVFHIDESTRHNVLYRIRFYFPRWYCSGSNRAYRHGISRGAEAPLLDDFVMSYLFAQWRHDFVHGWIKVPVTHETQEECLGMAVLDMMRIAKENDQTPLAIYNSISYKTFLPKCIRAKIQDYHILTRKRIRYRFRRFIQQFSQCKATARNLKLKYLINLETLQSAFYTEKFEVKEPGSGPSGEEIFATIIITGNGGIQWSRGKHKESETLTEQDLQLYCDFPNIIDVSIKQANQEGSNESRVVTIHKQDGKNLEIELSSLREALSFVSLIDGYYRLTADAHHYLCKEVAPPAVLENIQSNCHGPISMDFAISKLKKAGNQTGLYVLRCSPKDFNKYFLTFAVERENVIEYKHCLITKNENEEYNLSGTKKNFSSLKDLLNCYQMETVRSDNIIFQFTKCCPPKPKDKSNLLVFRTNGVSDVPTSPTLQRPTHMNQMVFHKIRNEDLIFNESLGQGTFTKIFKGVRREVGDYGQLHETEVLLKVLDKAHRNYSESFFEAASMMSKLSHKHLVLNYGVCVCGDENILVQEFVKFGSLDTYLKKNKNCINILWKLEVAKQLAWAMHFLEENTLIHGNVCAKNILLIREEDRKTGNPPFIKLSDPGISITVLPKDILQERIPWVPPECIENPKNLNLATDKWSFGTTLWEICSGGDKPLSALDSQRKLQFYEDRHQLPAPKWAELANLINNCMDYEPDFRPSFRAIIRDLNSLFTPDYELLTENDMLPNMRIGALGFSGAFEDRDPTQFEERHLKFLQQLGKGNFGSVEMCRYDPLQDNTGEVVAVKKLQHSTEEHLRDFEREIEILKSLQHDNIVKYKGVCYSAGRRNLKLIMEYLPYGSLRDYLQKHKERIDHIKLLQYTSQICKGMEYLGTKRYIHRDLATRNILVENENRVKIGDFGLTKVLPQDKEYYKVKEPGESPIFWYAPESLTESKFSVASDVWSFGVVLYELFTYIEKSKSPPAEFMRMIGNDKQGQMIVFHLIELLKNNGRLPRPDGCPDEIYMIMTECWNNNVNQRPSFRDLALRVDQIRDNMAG
Sequence of MERTK (Q12866 whole entry, looked up): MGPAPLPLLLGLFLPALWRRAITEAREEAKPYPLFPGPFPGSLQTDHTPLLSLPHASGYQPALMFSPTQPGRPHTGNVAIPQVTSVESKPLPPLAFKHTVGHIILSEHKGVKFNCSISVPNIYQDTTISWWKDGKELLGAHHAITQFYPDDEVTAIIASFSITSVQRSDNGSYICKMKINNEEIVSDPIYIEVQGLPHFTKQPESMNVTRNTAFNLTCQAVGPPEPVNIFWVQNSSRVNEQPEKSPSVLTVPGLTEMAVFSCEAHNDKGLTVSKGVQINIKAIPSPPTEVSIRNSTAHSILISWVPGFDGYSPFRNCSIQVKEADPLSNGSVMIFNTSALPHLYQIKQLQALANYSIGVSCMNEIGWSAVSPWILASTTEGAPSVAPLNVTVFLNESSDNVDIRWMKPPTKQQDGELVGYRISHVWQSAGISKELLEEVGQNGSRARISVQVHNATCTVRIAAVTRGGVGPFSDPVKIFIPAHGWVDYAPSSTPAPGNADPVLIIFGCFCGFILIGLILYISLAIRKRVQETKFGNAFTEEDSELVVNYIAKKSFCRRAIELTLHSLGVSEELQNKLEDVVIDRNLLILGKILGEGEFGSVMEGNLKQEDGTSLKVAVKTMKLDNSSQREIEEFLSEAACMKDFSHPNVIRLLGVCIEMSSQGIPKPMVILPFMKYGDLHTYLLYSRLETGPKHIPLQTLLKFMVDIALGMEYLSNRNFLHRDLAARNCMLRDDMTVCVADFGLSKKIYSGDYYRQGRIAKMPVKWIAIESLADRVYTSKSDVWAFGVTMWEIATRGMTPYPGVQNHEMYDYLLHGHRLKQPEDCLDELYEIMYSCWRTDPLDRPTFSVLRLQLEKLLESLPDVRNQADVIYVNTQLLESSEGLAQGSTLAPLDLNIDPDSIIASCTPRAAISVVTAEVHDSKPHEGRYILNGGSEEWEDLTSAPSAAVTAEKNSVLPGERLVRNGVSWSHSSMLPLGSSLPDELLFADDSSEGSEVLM
Sequence of FGFR1 (P11362 whole entry, looked up): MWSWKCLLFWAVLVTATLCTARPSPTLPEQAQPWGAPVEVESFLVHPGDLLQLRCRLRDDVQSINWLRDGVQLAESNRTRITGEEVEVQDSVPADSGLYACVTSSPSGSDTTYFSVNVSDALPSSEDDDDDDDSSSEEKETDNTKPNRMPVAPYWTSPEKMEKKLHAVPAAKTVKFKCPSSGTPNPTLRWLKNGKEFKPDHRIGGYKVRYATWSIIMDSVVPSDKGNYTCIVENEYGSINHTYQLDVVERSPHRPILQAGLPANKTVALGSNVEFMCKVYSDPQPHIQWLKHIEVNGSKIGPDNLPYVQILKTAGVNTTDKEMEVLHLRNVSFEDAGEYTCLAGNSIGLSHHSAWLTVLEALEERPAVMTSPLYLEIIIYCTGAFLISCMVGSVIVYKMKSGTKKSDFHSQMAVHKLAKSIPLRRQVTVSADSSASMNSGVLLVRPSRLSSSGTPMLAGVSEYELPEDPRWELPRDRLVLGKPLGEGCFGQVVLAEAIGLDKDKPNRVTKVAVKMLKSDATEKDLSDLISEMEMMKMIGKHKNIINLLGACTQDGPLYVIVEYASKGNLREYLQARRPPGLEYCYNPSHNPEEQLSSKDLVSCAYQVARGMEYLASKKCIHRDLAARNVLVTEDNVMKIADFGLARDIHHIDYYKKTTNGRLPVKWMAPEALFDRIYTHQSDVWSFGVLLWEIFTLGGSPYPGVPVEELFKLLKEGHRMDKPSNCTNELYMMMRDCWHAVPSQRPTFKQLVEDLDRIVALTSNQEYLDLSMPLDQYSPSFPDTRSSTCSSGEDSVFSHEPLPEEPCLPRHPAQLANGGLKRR
Sequence of Hck (P08631 whole entry, looked up): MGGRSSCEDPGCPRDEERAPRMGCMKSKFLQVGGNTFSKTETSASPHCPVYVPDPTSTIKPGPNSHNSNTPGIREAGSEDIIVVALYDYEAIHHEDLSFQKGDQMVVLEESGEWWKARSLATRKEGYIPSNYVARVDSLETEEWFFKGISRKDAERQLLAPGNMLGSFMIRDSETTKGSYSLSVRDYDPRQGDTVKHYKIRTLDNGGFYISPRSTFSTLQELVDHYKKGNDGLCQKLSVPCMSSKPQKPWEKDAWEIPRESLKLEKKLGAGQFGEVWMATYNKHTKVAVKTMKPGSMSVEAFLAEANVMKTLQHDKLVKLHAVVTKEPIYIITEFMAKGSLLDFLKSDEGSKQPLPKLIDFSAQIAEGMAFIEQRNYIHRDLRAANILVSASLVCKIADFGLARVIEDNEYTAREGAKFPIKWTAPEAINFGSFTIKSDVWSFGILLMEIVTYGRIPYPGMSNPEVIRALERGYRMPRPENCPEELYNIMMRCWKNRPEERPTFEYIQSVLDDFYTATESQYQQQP
Sequence of EPHB1 (P54762 whole entry, looked up): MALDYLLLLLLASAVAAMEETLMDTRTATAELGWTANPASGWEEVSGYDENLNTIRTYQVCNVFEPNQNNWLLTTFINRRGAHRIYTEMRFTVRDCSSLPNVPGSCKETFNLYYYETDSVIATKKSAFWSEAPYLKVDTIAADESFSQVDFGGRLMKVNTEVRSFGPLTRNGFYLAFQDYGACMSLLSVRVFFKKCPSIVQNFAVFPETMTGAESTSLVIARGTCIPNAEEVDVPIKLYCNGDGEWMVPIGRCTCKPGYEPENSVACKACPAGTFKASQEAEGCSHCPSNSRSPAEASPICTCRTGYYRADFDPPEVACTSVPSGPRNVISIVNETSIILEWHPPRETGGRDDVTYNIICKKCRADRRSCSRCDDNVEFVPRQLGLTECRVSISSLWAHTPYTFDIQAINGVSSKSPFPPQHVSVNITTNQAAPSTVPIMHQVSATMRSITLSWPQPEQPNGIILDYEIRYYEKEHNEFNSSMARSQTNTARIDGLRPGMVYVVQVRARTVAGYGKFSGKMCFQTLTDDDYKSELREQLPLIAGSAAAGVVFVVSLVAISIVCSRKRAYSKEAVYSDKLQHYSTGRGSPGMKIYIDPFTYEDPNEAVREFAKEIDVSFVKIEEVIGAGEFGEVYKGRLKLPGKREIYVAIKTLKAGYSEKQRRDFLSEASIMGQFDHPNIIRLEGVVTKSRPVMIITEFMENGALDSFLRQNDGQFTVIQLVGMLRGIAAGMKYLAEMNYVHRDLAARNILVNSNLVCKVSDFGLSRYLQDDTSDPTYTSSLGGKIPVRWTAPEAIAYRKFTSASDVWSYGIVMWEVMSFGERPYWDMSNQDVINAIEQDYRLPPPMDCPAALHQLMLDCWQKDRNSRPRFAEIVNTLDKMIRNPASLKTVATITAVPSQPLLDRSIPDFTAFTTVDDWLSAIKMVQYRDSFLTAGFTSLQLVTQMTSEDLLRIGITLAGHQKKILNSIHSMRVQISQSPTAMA
Sequence of Fyn (P06241 whole entry, looked up): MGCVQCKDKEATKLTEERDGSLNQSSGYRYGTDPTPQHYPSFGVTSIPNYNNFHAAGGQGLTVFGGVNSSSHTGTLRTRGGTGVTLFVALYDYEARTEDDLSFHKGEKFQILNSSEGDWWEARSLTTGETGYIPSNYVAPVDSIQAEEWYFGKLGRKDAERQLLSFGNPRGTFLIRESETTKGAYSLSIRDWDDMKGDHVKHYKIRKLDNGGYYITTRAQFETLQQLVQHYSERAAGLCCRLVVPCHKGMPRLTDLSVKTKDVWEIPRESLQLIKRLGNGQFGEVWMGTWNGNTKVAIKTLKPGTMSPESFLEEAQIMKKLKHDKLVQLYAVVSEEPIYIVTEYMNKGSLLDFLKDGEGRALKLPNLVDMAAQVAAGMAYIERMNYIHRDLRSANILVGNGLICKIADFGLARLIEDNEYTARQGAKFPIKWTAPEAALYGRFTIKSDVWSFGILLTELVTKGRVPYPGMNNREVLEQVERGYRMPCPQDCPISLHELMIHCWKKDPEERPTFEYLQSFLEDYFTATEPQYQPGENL

- SH2 binding enrichment (c-Src SH2): 5.75
- SH2 binding enrichment (Grb2 SH2): 0.961
- SH2 binding enrichment (SHP2-C SH2): 0.771
Sequence: IRQDHYESLKE [MTR_Y921]
- phosphorylation enrichment (AncSZ): 0.755
- phosphorylation enrichment (c-Abl (mouse)): 0.56
- phosphorylation enrichment (FGFR1): 0.45
- phosphorylation enrichment (Jak2): 0.733
- phosphorylation enrichment (Fyn): 0.494
- phosphorylation enrichment (Fes): 0.873
- phosphorylation enrichment (FGFR3): 0.693
- phosphorylation enrichment (Fer (mouse)): 0.483
- phosphorylation enrichment (c-Src): 0.48
- phosphorylation enrichment (MERTK): 0.509
- phosphorylation enrichment (EPHB2): 0.482
- phosphorylation enrichment (Hck): 0.594
- phosphorylation enrichment (EPHB1): 0.529

- SH2 binding enrichment (c-Src SH2): 0.418
- SH2 binding enrichment (Grb2 SH2): 0.694
- SH2 binding enrichment (SHP2-C SH2): 0.757
Sequence: PEAALYGRFTI [FYN_Y440]
- phosphorylation enrichment (AncSZ): 0.875
- phosphorylation enrichment (c-Abl (mouse)): 2.83
- phosphorylation enrichment (FGFR1): 0.646
- phosphorylation enrichment (Jak2): 1.38
- phosphorylation enrichment (Fyn): 7.72
- phosphorylation enrichment (Fes): 1.11
- phosphorylation enrichment (FGFR3): 0.645
- phosphorylation enrichment (Fer (mouse)): 1.67
- phosphorylation enrichment (c-Src): 6.87
- phosphorylation enrichment (MERTK): 1.9
- phosphorylation enrichment (EPHB2): 0.514
- phosphorylation enrichment (Hck): 6.52
- phosphorylation enrichment (EPHB1): 0.59

- SH2 binding enrichment (c-Src SH2): 0.542
- SH2 binding enrichment (Grb2 SH2): 0.962
- SH2 binding enrichment (SHP2-C SH2): 0.543
Sequence: FEKNVYVDKNL [PTCHD3_Y688]
- phosphorylation enrichment (AncSZ): 0.615
- phosphorylation enrichment (c-Abl (mouse)): 0.616
- phosphorylation enrichment (FGFR1): 0.419
- phosphorylation enrichment (Jak2): 0.732
- phosphorylation enrichment (Fyn): 0.405
- phosphorylation enrichment (Fes): 0.894
- phosphorylation enrichment (FGFR3): 0.461
- phosphorylation enrichment (Fer (mouse)): 0.437
- phosphorylation enrichment (c-Src): 0.446
- phosphorylation enrichment (MERTK): 0.411
- phosphorylation enrichment (EPHB2): 0.406
- phosphorylation enrichment (Hck): 0.505
- phosphorylation enrichment (EPHB1): 0.36

- SH2 binding enrichment (c-Src SH2): 0.807
- SH2 binding enrichment (Grb2 SH2): 0.953
- SH2 binding enrichment (SHP2-C SH2): 1.13
Sequence: INMKKYCKKDF [NTN1_Y490_YF]
- phosphorylation enrichment (AncSZ): 0.854
- phosphorylation enrichment (c-Abl (mouse)): 0.734
- phosphorylation enrichment (FGFR1): 0.56
- phosphorylation enrichment (Jak2): 0.689
- phosphorylation enrichment (Fyn): 0.438
- phosphorylation enrichment (Fes): 0.948
- phosphorylation enrichment (FGFR3): 0.757
- phosphorylation enrichment (Fer (mouse)): 0.572
- phosphorylation enrichment (c-Src): 0.491
- phosphorylation enrichment (MERTK): 0.659
- phosphorylation enrichment (EPHB2): 0.522
- phosphorylation enrichment (Hck): 0.437
- phosphorylation enrichment (EPHB1): 0.45

- SH2 binding enrichment (c-Src SH2): 0.593
- SH2 binding enrichment (Grb2 SH2): 0.828
- SH2 binding enrichment (SHP2-C SH2): 0.573
Sequence: QRALLYEDALF [UNC13D_Y56_YF]
- phosphorylation enrichment (AncSZ): 1.21
- phosphorylation enrichment (c-Abl (mouse)): 0.878
- phosphorylation enrichment (FGFR1): 0.68
- phosphorylation enrichment (Jak2): 0.867
- phosphorylation enrichment (Fyn): 1.54
- phosphorylation enrichment (Fes): 2.16
- phosphorylation enrichment (FGFR3): 0.896
- phosphorylation enrichment (Fer (mouse)): 16.1
- phosphorylation enrichment (c-Src): 1.5
- phosphorylation enrichment (MERTK): 4.86
- phosphorylation enrichment (EPHB2): 8.85
- phosphorylation enrichment (Hck): 1.45
- phosphorylation enrichment (EPHB1): 10.4

- SH2 binding enrichment (c-Src SH2): 0.546
- SH2 binding enrichment (Grb2 SH2): 0.705
- SH2 binding enrichment (SHP2-C SH2): 0.611
Sequence: APQFTYAQGGQ [FLNA_Y1763_YF]
- phosphorylation enrichment (AncSZ): 0.645
- phosphorylation enrichment (c-Abl (mouse)): 0.421
- phosphorylation enrichment (FGFR1): 0.585
- phosphorylation enrichment (Jak2): 0.42
- phosphorylation enrichment (Fyn): 0.574
- phosphorylation enrichment (Fes): 0.706
- phosphorylation enrichment (FGFR3): 0.628
- phosphorylation enrichment (Fer (mouse)): 0.304
- phosphorylation enrichment (c-Src): 0.538
- phosphorylation enrichment (MERTK): 0.26
- phosphorylation enrichment (EPHB2): 0.739
- phosphorylation enrichment (Hck): 0.415
- phosphorylation enrichment (EPHB1): 0.372

- SH2 binding enrichment (c-Src SH2): 1.51
- SH2 binding enrichment (Grb2 SH2): 1.63
- SH2 binding enrichment (SHP2-C SH2): 1.76
Sequence: KVKPIYFRTQG [AR_Y916_H918R]
- phosphorylation enrichment (AncSZ): 0.701
- phosphorylation enrichment (c-Abl (mouse)): 0.626
- phosphorylation enrichment (FGFR1): 0.475
- phosphorylation enrichment (Jak2): 0.491
- phosphorylation enrichment (Fyn): 0.404
- phosphorylation enrichment (Fes): 0.644
- phosphorylation enrichment (FGFR3): 0.448
- phosphorylation enrichment (Fer (mouse)): 0.477
- phosphorylation enrichment (c-Src): 0.454
- phosphorylation enrichment (MERTK): 0.401
- phosphorylation enrichment (EPHB2): 0.396
- phosphorylation enrichment (Hck): 0.495
- phosphorylation enrichment (EPHB1): 0.356

- SH2 binding enrichment (c-Src SH2): 0.493
- SH2 binding enrichment (Grb2 SH2): 1.01
- SH2 binding enrichment (SHP2-C SH2): 0.802
Sequence: GRQGIYTKNER [GPR143_Y231_E233K]
- phosphorylation enrichment (AncSZ): 0.422
- phosphorylation enrichment (c-Abl (mouse)): 0.422
- phosphorylation enrichment (FGFR1): 0.447
- phosphorylation enrichment (Jak2): 0.46
- phosphorylation enrichment (Fyn): 0.386
- phosphorylation enrichment (Fes): 0.466
- phosphorylation enrichment (FGFR3): 0.371
- phosphorylation enrichment (Fer (mouse)): 0.556
- phosphorylation enrichment (c-Src): 0.327
- phosphorylation enrichment (MERTK): 0.359
- phosphorylation enrichment (EPHB2): 0.329
- phosphorylation enrichment (Hck): 0.327
- phosphorylation enrichment (EPHB1): 0.357

- SH2 binding enrichment (c-Src SH2): 1.45
- SH2 binding enrichment (Grb2 SH2): 0.663
- SH2 binding enrichment (SHP2-C SH2): 0.686
Sequence: VEKGSYSALLA [ABCC2_Y845]
- phosphorylation enrichment (AncSZ): 0.648
- phosphorylation enrichment (c-Abl (mouse)): 0.516
- phosphorylation enrichment (FGFR1): 0.401
- phosphorylation enrichment (Jak2): 0.69
- phosphorylation enrichment (Fyn): 0.332
- phosphorylation enrichment (Fes): 0.535
- phosphorylation enrichment (FGFR3): 0.456
- phosphorylation enrichment (Fer (mouse)): 0.45
- phosphorylation enrichment (c-Src): 0.493
- phosphorylation enrichment (MERTK): 0.71
- phosphorylation enrichment (EPHB2): 0.392
- phosphorylation enrichment (Hck): 0.537
- phosphorylation enrichment (EPHB1): 0.354

- SH2 binding enrichment (c-Src SH2): 0.515
- SH2 binding enrichment (Grb2 SH2): 1.29
- SH2 binding enrichment (SHP2-C SH2): 1.02
Sequence: TRDVNYGWTIR [MT-CYB_Y75_I78T]
- phosphorylation enrichment (AncSZ): 1.39
- phosphorylation enrichment (c-Abl (mouse)): 0.534
- phosphorylation enrichment (FGFR1): 0.46
- phosphorylation enrichment (Jak2): 0.834
- phosphorylation enrichment (Fyn): 0.441
- phosphorylation enrichment (Fes): 0.969
- phosphorylation enrichment (FGFR3): 0.636
- phosphorylation enrichment (Fer (mouse)): 0.588
- phosphorylation enrichment (c-Src): 0.492
- phosphorylation enrichment (MERTK): 0.495
- phosphorylation enrichment (EPHB2): 0.648
- phosphorylation enrichment (Hck): 0.478
- phosphorylation enrichment (EPHB1): 0.544

- SH2 binding enrichment (c-Src SH2): 0.517
- SH2 binding enrichment (Grb2 SH2): 0.708
- SH2 binding enrichment (SHP2-C SH2): 0.918
Sequence: SLLTDYSPQLQ [OTC_Y345]
- phosphorylation enrichment (AncSZ): 0.776
- phosphorylation enrichment (c-Abl (mouse)): 0.483
- phosphorylation enrichment (FGFR1): 0.447
- phosphorylation enrichment (Jak2): 0.788
- phosphorylation enrichment (Fyn): 0.45
- phosphorylation enrichment (Fes): 0.796
- phosphorylation enrichment (FGFR3): 0.546
- phosphorylation enrichment (Fer (mouse)): 0.453
- phosphorylation enrichment (c-Src): 0.372
- phosphorylation enrichment (MERTK): 0.381
- phosphorylation enrichment (EPHB2): 0.508
- phosphorylation enrichment (Hck): 0.48
- phosphorylation enrichment (EPHB1): 0.459

- SH2 binding enrichment (c-Src SH2): 1.01
- SH2 binding enrichment (Grb2 SH2): 1.25
- SH2 binding enrichment (SHP2-C SH2): 1.07
Sequence: KQLFAYKMLMA [TMC2_Y209_YF]
- phosphorylation enrichment (AncSZ): 0.858
- phosphorylation enrichment (c-Abl (mouse)): 0.711
- phosphorylation enrichment (FGFR1): 0.548
- phosphorylation enrichment (Jak2): 0.773
- phosphorylation enrichment (Fyn): 0.475
- phosphorylation enrichment (Fes): 0.926
- phosphorylation enrichment (FGFR3): 0.677
- phosphorylation enrichment (Fer (mouse)): 0.445
- phosphorylation enrichment (c-Src): 0.439
- phosphorylation enrichment (MERTK): 0.386
- phosphorylation enrichment (EPHB2): 0.594
- phosphorylation enrichment (Hck): 0.566
- phosphorylation enrichment (EPHB1): 0.562

- SH2 binding enrichment (c-Src SH2): 0.48
- SH2 binding enrichment (Grb2 SH2): 0.837
- SH2 binding enrichment (SHP2-C SH2): 0.861
Sequence: WKEIEYEVVPD [CPS1_Y634_R638P]
- phosphorylation enrichment (AncSZ): 1.43
- phosphorylation enrichment (c-Abl (mouse)): 0.639
- phosphorylation enrichment (FGFR1): 0.7
- phosphorylation enrichment (Jak2): 1.18
- phosphorylation enrichment (Fyn): 0.483
- phosphorylation enrichment (Fes): 1.18
- phosphorylation enrichment (FGFR3): 0.774
- phosphorylation enrichment (Fer (mouse)): 0.554
- phosphorylation enrichment (c-Src): 0.479
- phosphorylation enrichment (MERTK): 0.494
- phosphorylation enrichment (EPHB2): 0.961
- phosphorylation enrichment (Hck): 0.559
- phosphorylation enrichment (EPHB1): 0.636

- SH2 binding enrichment (c-Src SH2): 1.08
- SH2 binding enrichment (Grb2 SH2): 1.2
- SH2 binding enrichment (SHP2-C SH2): 2.13
Sequence: VFSIDYFRVGG [NTRK2_Y706_T704I_YF]
- phosphorylation enrichment (AncSZ): 1.35
- phosphorylation enrichment (c-Abl (mouse)): 0.829
- phosphorylation enrichment (FGFR1): 4.54
- phosphorylation enrichment (Jak2): 5.86
- phosphorylation enrichment (Fyn): 0.535
- phosphorylation enrichment (Fes): 1.08
- phosphorylation enrichment (FGFR3): 2.94
- phosphorylation enrichment (Fer (mouse)): 0.484
- phosphorylation enrichment (c-Src): 0.649
- phosphorylation enrichment (MERTK): 0.526
- phosphorylation enrichment (EPHB2): 0.563
- phosphorylation enrichment (Hck): 0.588
- phosphorylation enrichment (EPHB1): 0.874
